From the domain aggregation screens of Martell et al. (2025)

Test: soluble fraction after stress (log2 fold change); higher = more stays soluble; pooled small domains, quantitative proteomics
Settings: stress: 75 degC
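Further: 20 min heating vs room temperature control held 20 min.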

Sequence	soluble fraction (log2)
HMKNYYRILGLNIDAEYEEIKAAYRILAQRHHPDKGGAAAEFRLIQEAYDILSNPLTKRNYDADLLATLN	-2.65
HMKPDMAVIVGSRTLTFATTTDRQILVLRTDGTMVNRLSMKAGETRTITLPAGVYIVNGKKIIV	-2.35
HMKPFSLESYKAFVVKRLGLFPETSSAQMHDWLKEEYPDFPLITPRTVYNFVMKIRQDYGIAKV	-3.43
HMKPFVVVPIDQVRVGMFIQLDLGWMQHPFPVGSFRVASEAQIDTLRSLDLESVRYLPAKSDPAFQQP	-2.82
HMKPGNFILDLLRTYGQKGTSAQNLMSSSRMFNFSENLIRVTLSRLAARGLIENFERGHYRLAE	-0.488
HMKPGTIVTGVVVDIKSDVVVVNAGLKSEGIVPIEQFRNDRGELEVAIGDEVKVALDSLENGFGETVLSRE	-0.435
HMKPQKRYLFEEVLTFLKHNSEKSFNYKQLGAAMEISNESDRFTLLETLEELKHQGFVVEKEIGKYQAKE	-1.25
HMKPRVTVVTLGVDDLERAVRFYAEGLGFPTEGIVGREFEFGAVAFFDMQPGLRLALWPRRSLAHDSGLP	-0.373
HMKPSISKIYALWGVLQRSGKIKSQDKAALDAFVRKYTGVDHVKWLDESQARKIIEILKQMIA	-1.55
HMKPSKTDEAEYWLMERLEEGPQPAGDLIRIGEEFGYTPKILRDAGERFNMERYKDGLDHWMWKLPN	-0.154
HMKPVTNHTVKFYVDDVLWKTVTVKHGGNVRLADLPMSDGKTFVGWSESVVNVTKDLTVFALFS	-1.96
HMKPVYNKVEIPRGGEYALVLSDGTKVHLNSMSSLRFPVAFTTGKREVELQGEAYFEVSKTGQPFIVNV	0.219
HMKQGKGIIVVDGKLMPEDFNVATLSLDEVESITVLKGEKAVALYGEKAKEREVLLITTQKG	0.427
HMKQKAEVIFVSKTIMEALSKGVRLTPENLKSETELPIDDFYARLKELIDNGSVVESRENGESYLEAGN	-0.0162
HMKQLNKRQDDILSLAEKEGYVSVENLAKTFTVSQQTIRRDINYLSDHEFLVRTHGGAFYSSG	-0.252
HMKQNNYATKKELNFFVSRLISLLSYRDFFNPIEKKESMINNIEAIFTRSSLTSQELRTLHGIISNLVE	-3.57
HMKQPNSYGSVHKLPGKRRKPWRVRKTSGWLLDEQSGTVKQQYITIGYYATKQEALIALADYNENP	-1.55
HMKQQFTREQIIELMYKAYKKHKKKLNRVEIKKEKALPSYVTIGRYLNETSIKKIWEIVLSEKE	-1.22
HMKQVEVESVIGKSEEAANSILTKAGLKVNIGYKEDSSKPTDTVLSQDPAPGEKVDEGTTVTIVVNNYKKP	0.139
HMKRANGTGSVFKLNGKRRNPWVARVTQGFDDKGRQKYVNLGYYKTKREAENELLSYNSNPYDAN	-0.238
HMKREWKDDDPTVPAGWKVAWTTTSDNRAKIAFMSPDKKIFHSRKSALQHMLAAGTYAQSDIEKMTKGL	-0.315
HMKRFSPPSIEEVDSYIREKGYTVDAERFVNFYESKGWYVGKNKMKNWRAAVATWQKEDNKRN	-0.226
HMKRGDAYASEMIARLKEAHLIVMEGTLYPLLTRLKNDGLLSYRWEESTQGPPRKYYSITPVG	0.151
HMKRITGHLTEKNKKWYAVINLYDTDGKRKEKWQGLNLDANKGNKREAEHRLRQILDQYNTD	-0.258
HMKRITKKQLSQQLEQFFSSQPGKKLTLKDIFRALHLDTHPLKMLAMDIMEEMAWDDFITKKGENAYQLNT	-0.916
HMKRKAIDQSWQPDKEAIEILSKAGVNEEFIKEEIPEFILYWSEKGEESDTWNSKFIAQVRRQWAKTQH	-0.121
HMKRQATLQIGSKRFGMDDLYFKFTVPFEDSEKLGTATIEAYNLSPATRNSIKKGMPIILNAGYEGDI	-0.425
HMKRTMVEAAMVAKLFNLTVRRIQQLTQDGVLTTELVDKKRRYDLLLTVQKYIAYLQEKVAK	-3.41

Sequence	soluble fraction (log2)
HMKRVVFFNGISWYHRTKELLDDMTTKYGKKGGFATPEEAEKSYWEYEERYKDRQRELQVAYLKN	-1.79
HMKSDEGEIKKIVEEIISKNASVVEDYKKGKEVALQFLVGQGMKATKGSANPELLKKIILENI	1.01
HMKSDVVFDITDGTVKAMLKFNRSDVTILNNDGKNYYLFTANGEFTFKYQDGSGEYYEKTVYVDWLEDE	-2.25
HMKSFIWKQYTVQITKKNVKNTNVRIKRDNPHVILMSIPYSATYKAGLLALETPHIRHWLDNYERKLKQ	-1.45
HMKSIEVPNLINMTLRKAKIELIDNEFNLDTVIYEYNPNIREGRVSLQIPESGTILKSGSNISIHISKGIP	-1.6
HMKSIPKIKWNSTLENIKNFEYQDNFFESKEMYDLLVSFYKYGFVIIKNIPTNNNFIVKFANSIGS	0.0519
HMKSISMANGNVQLRINGVLASSLEVAALSPEDIKRVEYHDNPGLRYGEGIDIVLDYITIKRT	-0.754
HMKSISMSKLRHLLQLYVQGRSKKLISEQTGIARNTLKKYIKEFSEAGLSLEALLALSDKELEDLFVK	-2.86
HMKSLPQKLLAYLESQGLTRDEAGEFVKQGLKITSNDVDQIQLLLANTEVIDIKLQEFIAQK	0.0281
HMKSLVDLEISIVKKDMNYFVLPKINGEPLLMERISASEYKDFQLGKLSKEDIFQKHYPDYSEENIKNGRG	-0.671
HMKSSISKNWNPSKDAIEILTRAGIDQEFLENLIPEFVIYWIERSDVLISYNSKFIEHARLKWAQHTAEIQ	0.192
HMKSTPMYATAIVNIRSKAGTDSEILGKLNPSEEISVISSENGWSKVSYNGKEAYISSNYLSNAKP	-0.0974
HMKSVFQPIYEDLLSRIQDGRLLPGMPLPSENALAVQYGTSRPTIRRAIGLLVEKSLVIRQPGIGSIVAS	-1.32
HMKTALQENVRAYRLERKWTQQALAEALEVSVGAVSKWESGVSRPELETLMRLAELFGVSTDALLGF	-2.33
HMKTAWDELNEVIEAYRGQESALIEVLHKAQEIMGYLPRDVQEAIAEGLHVPLNKVYGVVSFYHHFSV	0.449
HMKTERTVRVQDQHLHYTLEEKPIKNVNLRIRPDGSVYVSAPFGTSRTLIDDFVASKSKQILAIQQAQSAM	-0.277
HMKTGIGIVEANGGLRLRSQASTSSDVLSTAHNGDNVVVIRQVGNWYLVNYNLKIGYMHSDYITFKE	-5.04
HMKTGNIIAVSLVWKGKYYMIRMFFPSAARPSRADVQTEIEKVYPGSKLSSFSVSDYEPGQPLLQV	-3.05
HMKTGTTGLIGEIGVVKKALTPEGKVFVHGELWRAVSKTASPEGTLVQVIKINNLVLEVEKV	-2.98
HMKTILEKDQRLAKYISYLIKRKRLSPEQVIEHLKTDDHGYEKYPKSINTIYAAIDKGLIPSVTRQDM	-0.509
HMKTKMTPELTTVIEAQIQKEWSPEQISGWLKKTHPVSVSHQRIYQHIQADRQQGGTLHQHLRQAK	0.00699
HMKTKTFSPGEIVKIQTRDKSWQGTILESHDPEIILLKLTTGYNIGIRENEIINAKVIEKSKKDVKDAE	0.258
HMKTKTIMSTGAREDLVKMINEYYYSKNYIITEDNRIYNTKTEKFMDDLSVKFYRGRWKVIRN	-0.852
HMKTLDATQRLKLNGEGIIVFNFGKYVDQPVVEIFKKERGYFAWMMSKDFSQQVKNIITKIHNEEILGK	-3.01
HMKTLKHYFASIAHEFGREEAELMLLSVFKTPFEQRLMLFMKDPALTEAQVQQLDNLVRQRKQGVPLPYIL	-2.68
HMKTLPADPTVKNFSYTVVDGEIYYRENSIMTQIELSDNAKGRVAGMVELRQIVNELIDQQLND	-0.849
HMKTMEQSYIGRKIILDENVEDSALIKFEGIYWTFKSVSGPLKKGTEVEIIGIEGNKILIKNK	-0.988
